# The supplement of paper PMC9112550, “Optimization of the antimicrobial peptide Bac7 by deep mutational scanning” (BMC Biology, 2022)
# Tested on: Escherichia coli TOP10
# Test: shrunken log2 fold change of peptide-encoding DNA abundance (4.5 h post-induction vs induction); higher = less antimicrobial activity (less host growth inhibition)
# Conditions: time post-induction: 4.5 h; library: site-saturation at positions 5, 18, 19, 20
# 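Also: peptides expressed intracellularly from a pBAD plasmid library in pooled LB shake-flask culture, induced with 0.3% L-arabinose, DNA abundance read by NGS, three biological replicates, DESeq2 with apeglm shrinkage.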
row,Sequence,shrunken log2 fold change
1,RRIRDRPPRLPRPRPRPPEGPRP,0.76
2,RRIRDRPPRLPRPRPRPPGIPRP,0.233
3,RRIRDRPPRLPRPRPRPPINPRP,-0.205
4,RRIRDRPPRLPRPRPRPPKCPRP,0.0933
5,RRIRDRPPRLPRPRPRPPKNPRP,0.344
6,RRIRDRPPRLPRPRPRPPLYPRP,0.0303
7,RRIRDRPPRLPRPRPRPPMRPRP,0.759
8,RRIRDRPPRLPRPRPRPPNRPRP,0.789
9,RRIRDRPPRLPRPRPRPPQHPRP,0.171
10,RRIRDRPPRLPRPRPRPPQRPRP,0.719
11,RRIRDRPPRLPRPRPRPPRLPRP,0.144
12,RRIRDRPPRLPRPRPRPPRTPRP,0.389
13,RRIRDRPPRLPRPRPRPPTNPRP,0.0808
14,RRIRDRPPRLPRPRPRPPVMPRP,-0.435
15,RRIRDRPPRLPRPRPRPPYPPRP,0.109
16,RRIRDRPPRLPRPRPRPQAQPRP,-0.0247
17,RRIRDRPPRLPRPRPRPQCKPRP,0.0759
18,RRIRDRPPRLPRPRPRPQDEPRP,-0.166
19,RRIRDRPPRLPRPRPRPQDPPRP,-0.213
20,RRIRDRPPRLPRPRPRPQEYPRP,-0.0984
21,RRIRDRPPRLPRPRPRPQFHPRP,-0.438
22,RRIRDRPPRLPRPRPRPQFPPRP,0.0234
23,RRIRDRPPRLPRPRPRPQFRPRP,-0.296
24,RRIRDRPPRLPRPRPRPQGMPRP,-0.00277
25,RRIRDRPPRLPRPRPRPQINPRP,-0.0439

row,Sequence,shrunken log2 fold change
1,RRIRDRPPRLPRPRPRPQLPPRP,0.186
2,RRIRDRPPRLPRPRPRPQMKPRP,-0.166
3,RRIRDRPPRLPRPRPRPQMRPRP,-0.0122
4,RRIRDRPPRLPRPRPRPQPHPRP,0.228
5,RRIRDRPPRLPRPRPRPQQHPRP,0.0276
6,RRIRDRPPRLPRPRPRPQRQPRP,0.0345
7,RRIRDRPPRLPRPRPRPQSKPRP,-0.0457
8,RRIRDRPPRLPRPRPRPQTPPRP,0.4
9,RRIRDRPPRLPRPRPRPQTQPRP,0.372
10,RRIRDRPPRLPRPRPRPQVLPRP,-0.178
11,RRIRDRPPRLPRPRPRPQWQPRP,-0.0558
12,RRIRDRPPRLPRPRPRPQYQPRP,-0.156
13,RRIRDRPPRLPRPRPRPRAWPRP,0.0227
14,RRIRDRPPRLPRPRPRPRCGPRP,0.565
15,RRIRDRPPRLPRPRPRPRCKPRP,-0.0316
16,RRIRDRPPRLPRPRPRPRDWPRP,0.619
17,RRIRDRPPRLPRPRPRPREEPRP,1.27
18,RRIRDRPPRLPRPRPRPRFYPRP,0.386
19,RRIRDRPPRLPRPRPRPRGFPRP,0.586
20,RRIRDRPPRLPRPRPRPRGQPRP,0.141
21,RRIRDRPPRLPRPRPRPRHDPRP,0.0894
22,RRIRDRPPRLPRPRPRPRIVPRP,-0.385
23,RRIRDRPPRLPRPRPRPRKRPRP,0.382
24,RRIRDRPPRLPRPRPRPRLLPRP,0.146
25,RRIRDRPPRLPRPRPRPRLPPRP,0.4

row,Sequence,shrunken log2 fold change
1,RRIRDRPPRLPRPRPRPRMVPRP,-0.177
2,RRIRDRPPRLPRPRPRPRNAPRP,-0.145
3,RRIRDRPPRLPRPRPRPRPPPRP,0.935
4,RRIRDRPPRLPRPRPRPRQHPRP,0.153
5,RRIRDRPPRLPRPRPRPRQLPRP,0.185
6,RRIRDRPPRLPRPRPRPRSEPRP,-0.0682
7,RRIRDRPPRLPRPRPRPRTAPRP,0.445
8,RRIRDRPPRLPRPRPRPRVMPRP,0.106
9,RRIRDRPPRLPRPRPRPRVQPRP,-0.183
10,RRIRDRPPRLPRPRPRPRVSPRP,0.223
11,RRIRDRPPRLPRPRPRPRWSPRP,0.264
12,RRIRDRPPRLPRPRPRPRYMPRP,-0.233
13,RRIRDRPPRLPRPRPRPRYWPRP,0.152
14,RRIRDRPPRLPRPRPRPSANPRP,0.119
15,RRIRDRPPRLPRPRPRPSAYPRP,0.0641
16,RRIRDRPPRLPRPRPRPSCGPRP,0.301
17,RRIRDRPPRLPRPRPRPSCIPRP,0.0916
18,RRIRDRPPRLPRPRPRPSDVPRP,-0.022
19,RRIRDRPPRLPRPRPRPSDYPRP,-0.566
20,RRIRDRPPRLPRPRPRPSEEPRP,0.277
21,RRIRDRPPRLPRPRPRPSEHPRP,0.12
22,RRIRDRPPRLPRPRPRPSFFPRP,-0.168
23,RRIRDRPPRLPRPRPRPSGQPRP,-0.0305
24,RRIRDRPPRLPRPRPRPSICPRP,-0.0317
25,RRIRDRPPRLPRPRPRPSIMPRP,-0.0808
